Laboratory results as given in patent publication US20120328512A1 (BRACCO IMAGING S P A, published 2012).
Like-named read-outs stand apart in the source and are kept apart here. Bridge positions count the residues as written; N and C are the ends. Square brackets hold non-standard residues; d marks the D form. Primed or numbered codes have the meaning given here. Ends that are not written are not given here. * marks the point of attachment. αGalNAc = CC(=O)N[C@@H]1[C@@H](O)[C@@H](O)[C@@H](CO)O[C@@H]1*; 5FAM = O=C1OC2(c3ccc(O)cc3Oc3cc(O)ccc32)c2ccc(C(=O)*)cc21; Phe(3,4-F2) = N[C@@H](Cc1ccc(F)c(F)c1)C(=O)O; Thf2ca = tetrahydrofuran-2-carboxylic acid; Phe(4-F) = N[C@@H](Cc1ccc(F)cc1)C(=O)O; CF5″ = 5-carboxyfluorescein label; Cha = N[C@@H](CC1CCCCC1)C(=O)O; CF5 = 5-carboxyfluorescein; AEEA = NCCOCCOCC(=O)O

What was measured:
[1] = biological target: T1, DDE; experiment: direct binding fluorescence polarization: CF5-labeled peptide titrated with DDE; n = 2
T1 chain 1: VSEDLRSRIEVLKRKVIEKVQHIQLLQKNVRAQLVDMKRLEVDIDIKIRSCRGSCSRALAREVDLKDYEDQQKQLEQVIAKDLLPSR
T1 chain 2: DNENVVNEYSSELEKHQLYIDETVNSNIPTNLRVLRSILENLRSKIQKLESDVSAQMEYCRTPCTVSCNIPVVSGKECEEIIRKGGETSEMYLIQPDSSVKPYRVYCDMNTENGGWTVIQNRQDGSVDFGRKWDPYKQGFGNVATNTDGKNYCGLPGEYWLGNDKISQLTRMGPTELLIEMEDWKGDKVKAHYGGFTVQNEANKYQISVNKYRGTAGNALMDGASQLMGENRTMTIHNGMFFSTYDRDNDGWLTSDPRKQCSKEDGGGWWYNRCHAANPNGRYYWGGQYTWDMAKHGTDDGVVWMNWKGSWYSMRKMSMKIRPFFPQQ
T1 chain 3: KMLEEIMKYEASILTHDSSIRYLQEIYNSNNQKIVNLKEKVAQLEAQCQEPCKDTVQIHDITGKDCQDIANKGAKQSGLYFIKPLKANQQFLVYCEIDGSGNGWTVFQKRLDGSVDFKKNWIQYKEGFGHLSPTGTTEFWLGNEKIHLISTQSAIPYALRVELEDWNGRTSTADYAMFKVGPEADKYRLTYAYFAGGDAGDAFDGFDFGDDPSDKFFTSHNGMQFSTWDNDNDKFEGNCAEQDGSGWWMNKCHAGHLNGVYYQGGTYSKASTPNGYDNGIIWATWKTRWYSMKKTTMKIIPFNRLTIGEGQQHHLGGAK
T1 chain 4: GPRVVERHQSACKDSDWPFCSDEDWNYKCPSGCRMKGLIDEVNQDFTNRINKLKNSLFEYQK
T1 chain 5: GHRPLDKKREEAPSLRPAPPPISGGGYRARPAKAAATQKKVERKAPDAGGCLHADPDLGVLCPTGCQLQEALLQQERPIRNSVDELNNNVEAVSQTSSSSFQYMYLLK
T1 chain 6: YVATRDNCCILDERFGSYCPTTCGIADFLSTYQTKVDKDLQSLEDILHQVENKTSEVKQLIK

[2] = biological target: DDE; experiment: as above; remark: listed apart in the source

B1: Seq000-CF5 (peptide)
peptide: Ac-WQPCPWESWTFCWDPGGGK(CF5)-NH2
modifications: disulfide 4-12
notes: also called standard 5CF-labeled peptide
B1 was tested, and the Kd [1] was 390 nM.

B2: Seq023-CF5 (peptide)
peptide: H-RWQPCPWESWTFCWDPGGGK(5FAM)-NH2
modifications: disulfide 5-13
SMILES: C[C@@H](O)[C@@H]1NC(=O)[C@H](Cc2c[nH]c3ccccc23)NC(=O)[C@H](CO)NC(=O)[C@H](CCC(=O)O)NC(=O)[C@H](Cc2c[nH]c3ccccc23)NC(=O)[C@@H]2CCCN2C(=O)[C@@H](NC(=O)[C@@H]2CCCN2C(=O)[C@H](CCC(N)=O)NC(=O)[C@H](Cc2c[nH]c3ccccc23)NC(=O)[C@@H](N)CCCNC(=N)N)CSSC[C@@H](C(=O)N[C@@H](Cc2c[nH]c3ccccc23)C(=O)N[C@@H](CC(=O)O)C(=O)N2CCC[C@H]2C(=O)NCC(=O)NCC(=O)NCC(=O)N[C@@H](CCCCNC(=O)c2ccc3c(c2)C(=O)OC32c3ccc(O)cc3Oc3cc(O)ccc32)C(N)=O)NC(=O)[C@H](Cc2ccccc2)NC1=O
B2 was tested, and the Kd [2] was 110 nM.

B3: Seq022-CF5 (peptide)
peptide: H-RGWQPCPWESWTFCWDPGGGK(5FAM)-NH2
modifications: disulfide 6-14
SMILES: C[C@@H](O)[C@@H]1NC(=O)[C@H](Cc2c[nH]c3ccccc23)NC(=O)[C@H](CO)NC(=O)[C@H](CCC(=O)O)NC(=O)[C@H](Cc2c[nH]c3ccccc23)NC(=O)[C@@H]2CCCN2C(=O)[C@@H](NC(=O)[C@@H]2CCCN2C(=O)[C@H](CCC(N)=O)NC(=O)[C@H](Cc2c[nH]c3ccccc23)NC(=O)CNC(=O)[C@@H](N)CCCNC(=N)N)CSSC[C@@H](C(=O)N[C@@H](Cc2c[nH]c3ccccc23)C(=O)N[C@@H](CC(=O)O)C(=O)N2CCC[C@H]2C(=O)NCC(=O)NCC(=O)NCC(=O)N[C@@H](CCCCNC(=O)c2ccc3c(c2)C(=O)OC32c3ccc(O)cc3Oc3cc(O)ccc32)C(N)=O)NC(=O)[C@H](Cc2ccccc2)NC1=O
Work on B3 yielded a Kd [2] of 280 nM.

B4: Seq051-CF5 (peptide)
peptide: GWQPCPAESWT[Cha]CWDPGGGK(CF5)-NH2
modifications: disulfide 5-13
Work on B4 yielded a Kd [2] of 60 nM.

B5: Seq016-CF5 (peptide)
peptide: Ac-GWQPCPWESWTFCWDPGGGK(CF5)-NH2
modifications: disulfide 5-13
Work on B5 yielded a Kd [1] of 230 nM.

B6: Seq057-CF5 (peptide)
peptide: RWQPCPAESWT[Cha]CWDPGGGK(CF5)-NH2
modifications: disulfide 5-13
B6 showed a Kd [2] of 30 nM.

B7: Seq039-CF5 (peptide)
peptide: Ac-GWQPCPAESWTFCWDPGGGK(5FAM)-NH2
modifications: disulfide 5-13
SMILES: CC(=O)NCC(=O)N[C@@H](Cc1c[nH]c2ccccc12)C(=O)N[C@@H](CCC(N)=O)C(=O)N1CCC[C@H]1C(=O)N[C@H]1CSSC[C@@H](C(=O)N[C@@H](Cc2c[nH]c3ccccc23)C(=O)N[C@@H](CC(=O)O)C(=O)N2CCC[C@H]2C(=O)NCC(=O)NCC(=O)NCC(=O)N[C@@H](CCCCNC(=O)c2ccc3c(c2)C(=O)OC32c3ccc(O)cc3Oc3cc(O)ccc32)C(N)=O)NC(=O)[C@H](Cc2ccccc2)NC(=O)[C@H]([C@@H](C)O)NC(=O)[C@H](Cc2c[nH]c3ccccc23)NC(=O)[C@H](CO)NC(=O)[C@H](CCC(=O)O)NC(=O)[C@H](C)NC(=O)[C@@H]2CCCN2C1=O
In the case of B7, the Kd [2] is reported as 240 nM.

B8: Seq027-CF5 (peptide)
peptide: Ac-S(αGalNAc)WQPCPWESWTFCWDPGGGK(CF5)-NH2
modifications: disulfide 5-13
B8 gave a Kd [2] of 500 nM.

B9: Seq038-CF5 (peptide)
peptide: H-GWQPCPAESWTFCWDPGGGK(5FAM)-NH2
modifications: disulfide 5-13
SMILES: C[C@@H]1NC(=O)[C@@H]2CCCN2C(=O)[C@@H](NC(=O)[C@@H]2CCCN2C(=O)[C@H](CCC(N)=O)NC(=O)[C@H](Cc2c[nH]c3ccccc23)NC(=O)CN)CSSC[C@@H](C(=O)N[C@@H](Cc2c[nH]c3ccccc23)C(=O)N[C@@H](CC(=O)O)C(=O)N2CCC[C@H]2C(=O)NCC(=O)NCC(=O)NCC(=O)N[C@@H](CCCCNC(=O)c2ccc3c(c2)C(=O)OC32c3ccc(O)cc3Oc3cc(O)ccc32)C(N)=O)NC(=O)[C@H](Cc2ccccc2)NC(=O)[C@H]([C@@H](C)O)NC(=O)[C@H](Cc2c[nH]c3ccccc23)NC(=O)[C@H](CO)NC(=O)[C@H](CCC(=O)O)NC1=O
With B9 the Kd [2] was 240 nM.

B10: Seq056-CF5 (peptide)
peptide: RWQPCPAESWTFCWDPGGGK(5FAM)-NH2
modifications: disulfide 5-13; N-terminus assumed
SMILES: C[C@@H]1NC(=O)[C@@H]2CCCN2C(=O)[C@@H](NC(=O)[C@@H]2CCCN2C(=O)[C@H](CCC(N)=O)NC(=O)[C@H](Cc2c[nH]c3ccccc23)NC(=O)[C@@H](N)CCCNC(=N)N)CSSC[C@@H](C(=O)N[C@@H](Cc2c[nH]c3ccccc23)C(=O)N[C@@H](CC(=O)O)C(=O)N2CCC[C@H]2C(=O)NCC(=O)NCC(=O)NCC(=O)N[C@@H](CCCCNC(=O)c2ccc3c(c2)C(=O)OC32c3ccc(O)cc3Oc3cc(O)ccc32)C(N)=O)NC(=O)[C@H](Cc2ccccc2)NC(=O)[C@H]([C@@H](C)O)NC(=O)[C@H](Cc2c[nH]c3ccccc23)NC(=O)[C@H](CO)NC(=O)[C@H](CCC(=O)O)NC1=O
B10 showed a Kd [2] of 60 nM.

B11: Seq017-CF5 (peptide)
peptide: Ac-SGSG[AEEA]WQPCPWESWTFCWDPGGGK(CF5″)-NH2
modifications: disulfide 9-17
For B11, the Kd [1] was 450 nM.

B12: Seq014-CF5 (peptide)
peptide: Ac-GPPGWQPCPWESWTFCWDPGGGK(CF5)-NH2
modifications: disulfide 8-16
Work on B12 yielded a Kd [1] of 250 nM.

B13: Seq053-CF5 (peptide)
peptide: Ac-RGWQPCPAESWT[Cha]CWDPGGGK(CF5)-NH2
modifications: disulfide 6-14
For B13, the Kd [2] was 100 nM.

B14: Seq018-CF5 (peptide)
peptide: Ac-WQPCPWESWT[Cha]CWDPGGGK(CF5)-NH2
modifications: disulfide 4-12
B14 gave a Kd [2] of 200 nM.

B15: Seq048-CF5 (peptide)
peptide: Ac-RWQPCPWESWTFCWDPGGGK(5FAM)-NH2
modifications: disulfide 5-13
SMILES: CC(=O)N[C@@H](CCCNC(=N)N)C(=O)N[C@@H](Cc1c[nH]c2ccccc12)C(=O)N[C@@H](CCC(N)=O)C(=O)N1CCC[C@H]1C(=O)N[C@H]1CSSC[C@@H](C(=O)N[C@@H](Cc2c[nH]c3ccccc23)C(=O)N[C@@H](CC(=O)O)C(=O)N2CCC[C@H]2C(=O)NCC(=O)NCC(=O)NCC(=O)N[C@@H](CCCCNC(=O)c2ccc3c(c2)C(=O)OC32c3ccc(O)cc3Oc3cc(O)ccc32)C(N)=O)NC(=O)[C@H](Cc2ccccc2)NC(=O)[C@H]([C@@H](C)O)NC(=O)[C@H](Cc2c[nH]c3ccccc23)NC(=O)[C@H](CO)NC(=O)[C@H](CCC(=O)O)NC(=O)[C@H](Cc2c[nH]c3ccccc23)NC(=O)[C@@H]2CCCN2C1=O
B15 gave a Kd [2] of 110 nM.

B16: Seq020-CF5 (peptide)
peptide: Ac-WQPCPWESWT[Phe(3,4-F2)]CWDPGGGK(CF5)-NH2
modifications: disulfide 4-12
B16 gave a Kd [2] of 700 nM.

B17: Seq055-CF5 (peptide)
peptide: Ac-GWQPCPAESWT[Cha]CWDPGGGK(CF5)-NH2
modifications: disulfide 5-13
In the case of B17, the Kd [2] is reported as 80 nM.

B18: Seq050-CF5 (peptide)
peptide: Ac-RWQPCPAESWT[Cha]CWDPGGGK(CF5)-NH2
modifications: disulfide 5-13
For B18, the Kd [2] was 80 nM.

B19: Seq054-CF5 (peptide)
peptide: RGWQPCPAESWT[Cha]CWDPGGGK(CF5)-NH2
modifications: disulfide 6-14
Binder B19 has a Kd [2] of 50 nM.

B20: Seq019-CF5 (peptide)
peptide: Ac-WQPCPWESWT[Phe(4-F)]CWDPGGGK(CF5)-NH2
modifications: disulfide 4-12
Work on B20 yielded a Kd [2] of 1020 nM.

B21: Seq052-CF5 (peptide)
peptide: Ac-RGWQPCPWESWTFCWDPGGGK(5FAM)-NH2
modifications: disulfide 6-14; not fully specified
B21 gave a Kd [2] of 530 nM.

B22: Seq024-CF5 (peptide)
peptide: Ac-SGSGSGSGWQPCPWESWTFCWDPGGGK(CF5)-NH2
modifications: disulfide 12-20
Work on B22 yielded a Kd [1] of 470 nM.

B23: Seq015-CF5 (peptide)
peptide: Ac-GGRGWQPCPWESWTFCWDPGGGK(CF5)-NH2
modifications: disulfide 8-16
In the case of B23, the Kd [1] is reported as 290 nM.

B24: Seq049-CF5 (peptide)
peptide: Ac-RWQPCPAESWTFCWDPGGGK(5FAM)-NH2
modifications: disulfide 5-13; not fully specified
B24 was tested, and the Kd [2] was 210 nM.

B25: Seq028-CF5 (peptide)
peptide: Thf2ca-WQPCPWESWTFCWDPGGGK(CF5)-NH2
modifications: disulfide 4-12
B25 gave a Kd [2] of 1210 nM.
